Results as given in patent US20140274782A1, “AFFINITY REAGENTS AND METHODS FOR DETECTION, PURIFICATION, AND PROTEOMIC ANALYSIS OF METHYLATED PROTEINS” (The Board of Trustees of the Leland Stanford Junior …, priority 2013, published 2014).

T1: G9a and GLP (Homo sapiens, UniProt Q96KQ7+Q9H9B1)
T1 sequence (Q96KQ7 2-1210 limits assumed): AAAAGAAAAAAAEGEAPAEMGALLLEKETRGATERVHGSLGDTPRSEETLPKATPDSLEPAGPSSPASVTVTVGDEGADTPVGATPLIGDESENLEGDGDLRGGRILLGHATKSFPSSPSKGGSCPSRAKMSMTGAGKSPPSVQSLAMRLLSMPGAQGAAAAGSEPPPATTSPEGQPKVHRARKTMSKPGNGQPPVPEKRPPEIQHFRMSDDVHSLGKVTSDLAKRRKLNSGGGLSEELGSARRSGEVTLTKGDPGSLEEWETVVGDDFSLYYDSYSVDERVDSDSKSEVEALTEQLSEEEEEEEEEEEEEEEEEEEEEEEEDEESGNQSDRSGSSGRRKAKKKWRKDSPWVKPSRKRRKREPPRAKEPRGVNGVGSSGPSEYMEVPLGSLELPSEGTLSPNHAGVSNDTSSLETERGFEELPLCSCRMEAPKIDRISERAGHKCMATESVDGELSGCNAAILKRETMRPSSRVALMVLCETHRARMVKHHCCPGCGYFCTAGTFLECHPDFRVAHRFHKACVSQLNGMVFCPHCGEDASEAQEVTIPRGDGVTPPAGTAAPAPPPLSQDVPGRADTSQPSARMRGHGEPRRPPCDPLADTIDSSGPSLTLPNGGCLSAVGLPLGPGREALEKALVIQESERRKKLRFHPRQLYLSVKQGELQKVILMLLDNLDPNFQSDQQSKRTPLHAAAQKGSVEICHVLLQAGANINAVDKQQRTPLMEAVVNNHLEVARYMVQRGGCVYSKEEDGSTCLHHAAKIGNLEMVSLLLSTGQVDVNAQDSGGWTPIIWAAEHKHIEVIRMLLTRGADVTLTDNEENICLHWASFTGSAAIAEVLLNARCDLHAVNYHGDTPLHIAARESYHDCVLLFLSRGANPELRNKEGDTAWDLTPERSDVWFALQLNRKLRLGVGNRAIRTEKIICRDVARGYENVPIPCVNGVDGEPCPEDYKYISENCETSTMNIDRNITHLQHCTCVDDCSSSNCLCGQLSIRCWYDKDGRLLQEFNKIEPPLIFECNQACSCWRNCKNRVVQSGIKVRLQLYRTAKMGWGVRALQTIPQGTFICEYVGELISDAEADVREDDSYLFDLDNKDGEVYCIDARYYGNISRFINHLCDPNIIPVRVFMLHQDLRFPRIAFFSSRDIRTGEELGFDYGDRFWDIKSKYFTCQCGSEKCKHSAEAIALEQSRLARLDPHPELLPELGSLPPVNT
T1 sequence (Q9H9B1 2-1298 limits assumed): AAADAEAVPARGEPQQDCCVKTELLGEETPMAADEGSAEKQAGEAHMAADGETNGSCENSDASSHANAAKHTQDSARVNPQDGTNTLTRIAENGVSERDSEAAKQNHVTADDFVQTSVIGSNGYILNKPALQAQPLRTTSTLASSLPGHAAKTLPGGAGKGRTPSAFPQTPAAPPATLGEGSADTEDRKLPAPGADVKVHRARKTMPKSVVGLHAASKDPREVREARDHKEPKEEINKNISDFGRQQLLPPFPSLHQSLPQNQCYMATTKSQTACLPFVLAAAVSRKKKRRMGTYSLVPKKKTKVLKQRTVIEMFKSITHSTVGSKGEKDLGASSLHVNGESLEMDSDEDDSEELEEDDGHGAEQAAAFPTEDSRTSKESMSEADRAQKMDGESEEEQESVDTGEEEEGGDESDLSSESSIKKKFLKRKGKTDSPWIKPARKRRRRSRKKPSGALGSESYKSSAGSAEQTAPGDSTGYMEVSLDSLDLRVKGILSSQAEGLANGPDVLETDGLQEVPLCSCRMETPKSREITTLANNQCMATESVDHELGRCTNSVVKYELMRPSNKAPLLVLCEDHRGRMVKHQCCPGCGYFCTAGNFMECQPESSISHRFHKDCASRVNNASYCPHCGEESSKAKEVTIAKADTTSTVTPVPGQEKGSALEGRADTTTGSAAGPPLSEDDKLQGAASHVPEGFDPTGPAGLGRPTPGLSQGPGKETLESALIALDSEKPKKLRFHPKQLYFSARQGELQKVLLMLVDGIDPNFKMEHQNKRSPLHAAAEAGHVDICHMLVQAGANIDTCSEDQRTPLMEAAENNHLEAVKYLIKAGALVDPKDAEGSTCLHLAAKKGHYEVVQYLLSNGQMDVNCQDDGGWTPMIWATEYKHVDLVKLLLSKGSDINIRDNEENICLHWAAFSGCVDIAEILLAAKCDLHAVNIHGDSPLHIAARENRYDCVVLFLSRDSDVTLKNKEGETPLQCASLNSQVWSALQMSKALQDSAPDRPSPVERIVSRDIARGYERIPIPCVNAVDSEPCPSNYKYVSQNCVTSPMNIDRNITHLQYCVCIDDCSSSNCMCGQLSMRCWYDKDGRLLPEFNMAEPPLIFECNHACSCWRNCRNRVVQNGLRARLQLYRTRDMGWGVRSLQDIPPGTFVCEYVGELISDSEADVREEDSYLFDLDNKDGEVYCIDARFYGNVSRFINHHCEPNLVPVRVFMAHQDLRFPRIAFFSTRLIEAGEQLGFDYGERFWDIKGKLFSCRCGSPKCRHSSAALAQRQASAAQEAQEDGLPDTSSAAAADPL


Legend:
3×MBT domain of L3MBTL1 = experiment: Triple SILAC pull-down, 3xMBT/3xMBTD355N ratio (cytoplasmic, nuclear and chromatin fractions of 293T cells); assay type: binding, human; conditions: SILAC ratio, pull-down 3xMBT vs 3xMBTD355N; for 3xMBT/D355N UNC Heavy: experiment with UNC0638 in heavy SILAC media; for 3xMBT/D355N UNC Light: experiment with UNC0638 in light SILAC media;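 as to all read-outs here: proteins quantified with MaxQuant, requiring at least two unique peptides and quantification in both label directions, normalized to the mean of proteins from a digested loading control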
G9a and GLP = target: T1, G9a and GLP; experiment: Triple SILAC pull-down after UNC0638 treatment of 293T cells, DMSO/UNC0638 ratio of protein captured by 3×MBT; assay type: cell-based; design: endogenous in cells; host or cells: HEK 293T; conditions: for Relative to UNC0638 UNC Heavy / Relative to UNC0638 UNC Light: SILAC ratio DMSO/UNC0638 of protein pulled down with 3xMBT; for Relative to UNC0638 UNC Heavy: UNC0638 in heavy SILAC media; for Relative to UNC0638 UNC Light: UNC0638 in light SILAC media; for Relative to UNC0638 Average: average of UNC Light and UNC Heavy experiments;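 as to all read-outs here: mass spectrometry (Q-Exactive) SILAC quantitation, DMSO/UNC0638 ratio computed after subtracting 3×MBTD355N mutant pull-down background, only proteins with at least twofold 3×MBT over mutant signal considered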

Molecule | 3xMBT/D355N UNC Heavy (3×MBT domain of L3MBTL1) [log base 2] | 3xMBT/D355N UNC Light (3×MBT domain of L3MBTL1) [log base 2] | Relative to UNC0638 UNC Heavy (G9a and GLP) [log base 2] | Relative to UNC0638 UNC Light (G9a and GLP) [log base 2] | Relative to UNC0638 Average (G9a and GLP) [log base 2]
SRBD1 (protein, UniProt Q8N5C6 1-995, looked up) S1 RNA-binding …: MSSLPRRAKVQVQDVVLKDEFSSFSELSSASEEDDKEDSAWEPQKKVPRSRKQPPPKESKPKRMPRVKKNAPQISDGSEVVVVKEELNSSVAIADTALEDRKNKLDTVQTLKTAKTKQKCAAQPHTVRRTKKLKVEEETSKASNLEGESNSSETPSTSTVWGGTCKKEENDDDFTFGQSALKKIKTETYPQGQPVKFPANANSTKEEVEMNWDMVQVLSERTNIEPWVCANIIRLFNDDNTIPFIIRYRKELINNLDADSLREVQQTLEELRAVAKKVHSTIQKIKKEGKMSECLLKAMLNCKTFEELEHVSAPYKTGSKGTKAQRARQLGLEGAARALLEKPGELSLLSYIRPDVKGLSTLQDIEIGVQHILADMIAKDKDTLDFIRNLCQKRHVCIQSSLAKVSSKKVNEKDVDKFLLYQHFSCNIRNIHHHQILAINRGENLKVLTVKVNISDGVKDEFCRWCIQNRWRPRSFARPELMKILYNSLNDSFKRLIYPLLCREFRAKLTSDAEKESVMMFGRNLRQLLLTSPVPGRTLMGVDPGYKHGCKLAIISPTSQILHTDVVYLHCGQGFREAEKIKTLLLNFNCSTVVIGNGTACRETEAYFADLIMKNYFAPLDVVYCIVSEAGASIYSVSPEANKEMPGLDPNLRSAVSIARRVQDPLAELVKIEPKHIGVGMYQHDVSQTLLKATLDSVVEECVSFVGVDINICSEVLLRHIAGLNANRAKNIIEWREKNGPFINREQLKKVKGLGPKSFQQCAGFIRINQDYIRTFCSQQTETSGQIQGVAVTSSADVEVTNEKQGKKKSKTAVNVLLKPNPLDQTCIHPESYDIAMRFLSSIGGTLYEVGKPEMQQKINSFLEKEGMEKIAERLQTTVHTLQVIIDGLSQPESFDFRTDFDKPDFKRSIVCLEDLQIGTVLTGKVENATLFGIFVDIGVGKSGLIPIRNVTEAKLSKTKKRRSLGLGPGERVEVQVLNIDIPRSRITLDLIRVL | 1.02 | 1.29 | −0.13 | 0.37 | 0.12
PRPF19 (protein, UniProt Q9UMS4 2-504, looked up) Pre-mRNA-processing factor 19: SLICSISNEVPEHPCVSPVSNHVYERRLIEKYIAENGTDPINNQPLSEEQLIDIKVAHPIRPKPPSATSIPAILKALQDEWDAVMLHSFTLRQQLQTTRQELSHALYQHDAACRVIARLTKEVTAAREALATLKPQAGLIVPQAVPSSQPSVVGAGEPMDLGELVGMTPEIIQKLQDKATVLTTERKKRGKTVPEELVKPEELSKYRQVASHVGLHSASIPGILALDLCPSDTNKILTGGADKNVVVFDKSSEQILATLKGHTKKVTSVVFHPSQDLVFSASPDATIRIWSVPNASCVQVVRAHESAVTGLSLHATGDYLLSSSDDQYWAFSDIQTGRVLTKVTDETSGCSLTCAQFHPDGLIFGTGTMDSQIKIWDLKERTNVANFPGHSGPITSIAFSENGYYLATAADDSSVKLWDLRKLKNFKTLQLDNNFEVKSLIFDQSGTYLALGGTDVQIYICKQWTEILHFTEHSGLTTGVAFGHHAKFIASTGMDRSLKFYSL | 2.05 | 1.97 | 0.39 | −0.15 | 0.12
CSDE1 (protein, UniProt O75534 1-798, looked up) Cold shock domain-containing …: MSFDPNLLHNNGHNGYPNGTSAALRETGVIEKLLTSYGFIQCSERQARLFFHCSQYNGNLQDLKVGDDVEFEVSSDRRTGKPIAVKLVKIKQEILPEERMNGQVVCAVPHNLESKSPAAPGQSPTGSVCYERNGEVFYLTYTPEDVEGNVQLETGDKINFVIDNNKHTGAVSARNIMLLKKKQARCQGVVCAMKEAFGFIERGDVVKEIFFHYSEFKGDLETLQPGDDVEFTIKDRNGKEVATDVRLLPQGTVIFEDISIEHFEGTVTKVIPKVPSKNQNDPLPGRIKVDFVIPKELPFGDKDTKSKVTLLEGDHVRFNISTDRRDKLERATNIEVLSNTFQFTNEAREMGVIAAMRDGFGFIKCVDRDVRMFFHFSEILDGNQLHIADEVEFTVVPDMLSAQRNHAIRIKKLPKGTVSFHSHSDHRFLGTVEKEATFSNPKTTSPNKGKEKEAEDGIIAYDDCGVKLTIAFQAKDVEGSTSPQIGDKVEFSISDKQRPGQQVATCVRLLGRNSNSKRLLGYVATLKDNFGFIETANHDKEIFFHYSEFSGDVDSLELGDMVEYSLSKGKGNKVSAEKVNKTHSVNGITEEADPTIYSGKVIRPLRSVDPTQTEYQGMIEIVEEGDMKGEVYPFGIVGMANKGDCLQKGESVKFQLCVLGQNAQTMAYNITPLRRATVECVKDQFGFINYEVGDSKKLFFHVKEVQDGIELQAGDEVEFSVILNQRTGKCSACNVWRVCEGPKAVAAPRPDRLVNRLKNITLDDASAPRLMVLRQPRGPDNSMGFGAERKIRQAGVID | 2.33 | 2.17 | 0.16 | 0.08 | 0.12
PRPF38B (protein, UniProt Q5VTL8 2-546, looked up) Pre-mRNA-splicing factor 38B: ANNSPALTGNSQPQHQAAAAAAQQQQQCGGGGATKPAVSGKQGNVLPLWGNEKTMNLNPMILTNILSSPYFKVQLYELKTYHEVVDEIYFKVTHVEPWEKGSRKTAGQTGMCGGVRGVGTGGIVSTAFCLLYKLFTLKLTRKQVMGLITHTDSPYIRALGFMYIRYTQPPTDLWDWFESFLDDEEDLDVKAGGGCVMTIGEMLRSFLTKLEWFSTLFPRIPVPVQKNIDQQIKTRPRKIKKDGKEGAEEIDRHVERRRSRSPRRSLSPRRSPRRSRSRSHHREGHGSSSFDRELEREKERQRLEREAKEREKERRRSRSIDRGLERRRSRSRERHRSRSRSRDRKGDRRDRDREREKENERGRRRDRDYDKERGNEREKERERSRERSKEQRSRGEVEEKKHKEDKDDRRHRDDKRDSKKEKKHSRSRSRERKHRSRSRSRNAGKRSRSRSKEKSSKHKNESKEKSNKRSRSGSQGRTDSVEKSKKREHSPSKEKSRKRSRSKERSHKRDHSDSKDQSDKHDRRRSQSIEQESQEKQHKNKDETV | 2.44 | 2.96 | −0.03 | 0.26 | 0.12
